Earlier results in paper PMC8714859.

Tests used:
M-CSF (Homo sapiens) = M-CSF (Homo sapiens) (UniProt P09603)
[1] = molecular target: interleukin-34 (Homo sapiens) (UniProt Q6ZMJ4)
Chain of UniProt Q6ZMJ4 (Q6ZMJ4 21-242): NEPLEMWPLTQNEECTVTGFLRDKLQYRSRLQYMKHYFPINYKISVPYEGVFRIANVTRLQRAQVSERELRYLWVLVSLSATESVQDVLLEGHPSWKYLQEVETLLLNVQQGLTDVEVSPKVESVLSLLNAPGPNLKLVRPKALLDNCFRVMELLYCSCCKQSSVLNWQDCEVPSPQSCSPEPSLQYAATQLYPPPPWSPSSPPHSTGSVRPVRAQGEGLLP

Chain of UniProt P09603 (P09603 33-190): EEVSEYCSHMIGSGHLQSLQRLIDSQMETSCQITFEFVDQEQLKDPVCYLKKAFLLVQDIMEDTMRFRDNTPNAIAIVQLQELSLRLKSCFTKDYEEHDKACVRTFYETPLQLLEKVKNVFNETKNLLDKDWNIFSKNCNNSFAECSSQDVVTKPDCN

## M-CSF receptor (from UniProt P07333)
M-CSF (Homo sapiens)
  Kd: 0.034 nM
[1]
  Kd: 0.001 nM
